Data as given in PMC12347638, “Fungal Laccases with High and Medium Redox Potential: Is the T1 Center Potential a Key Characteristic of Catalytic Efficiency in Heterogeneous and Homogeneous Reactions?” (International Journal of Molecular Sciences, 2025).

B1: SmL (Lac2), Steccherinum murashkinskyi laccase (Metuloidea murashkinskyi) (protein)
chain: AQIGPVTDLHITNANISPDGFSRPAVLAGGTFPGPTIAGNTGDNFQITVFNDLTDPSMLTDTSIHWHGLFQKGTNWADGPAFVTQCPIITGQSFDYNFNVPGQAGTFWYHSHLSTQYCDGLRGPFVVYDPNDPNASLYDVDDDTTIITLADWYHTLAQQEPIGAAITADATLINGLGRSFTNTTASPLSVITVQSGKRYRMRLVSISCDPNYLFSIDGHDMTIIEVDGVNSQQLTVDQIQIFAAQRYSFVLNANQPVGNYWIRAQPNSGGQGFDGGINSAILRYEGATVEDPTTTAPTTFSNPLVETDLHPLADLGVPGQPFRGGADDPLVLNLAFANGRFSIDGVSFVPPTVPVLLQILSGAQNAQDLLPAGSVISLPSNSVIEVALPAGAAGGPHPFHLHGHNFAVVQSANNATPNYVNPIWRDTVSIGGTGDNVTIRFTTNNPGPWFLHCHIDWHLEAGFAIVFAEDIPDTASANPVPQAWSDLCPAYDQAHNISTATRQDFQILCICGILHVNFRQEERCGIS
notes: native secreted enzyme purified from culture liquid
B2: AfL (LacA), Antrodiella faginea laccase (Antrodiella faginea) (protein)
chain: AIGPVADLKIVNANIQPDGFTRPAVLAGGTFPGPLIKGNKGDNFQLNVIDELENEDMLKSTSIHWHGFFQHGTNWADGPAFVNQCPITTGHSFLYNFHVPDQAGTFWYHSHLSTQYCDGLRGPMVVYDPHDPLKQLYDVDDESTVMTLADWYHTLARQEPPGPVTPDSTLINGLGRAPGQTTPSELAVLTVKRGTRYRIRLINISCEPNYHYSIDNHDLTVIEADGVSTQSLTVSSLTIFAGQRYSFILNANQPVGNYWIRAQPNDAADVTFNGGINSAILRYEGAPVAEPNTTAGPDNTPLLEVNIRPFVFTPVPGQPHAGGADFVKNLLFSFNGTNFQVDNVSFVPPTVPILLQILSGAHTAQDLMPAGSIIPLPKNAVIEFSMPGGVVGGGHPIHLHGHNFWVIRSANSSVYNYNDPVIRDVVNIGTTGDNVTIRFETNNPGPWFLHCHIDWHLDLGFAVVMAEDIPDAAAANPVPAAWNELCPLYDALTPGNQ
notes: as for B1

Legend:
purified protein [1] = substrate: CCn1c(=NN=c2sc3cc(S(=O)(=O)O)ccc3n2CC)sc2cc(S(=O)(=O)O)ccc21; test: purified protein; type: biochemical, Metuloidea murashkinskyi; settings: air-saturated 0.1 M Na-citrate-phosphate buffer, pH 5.5, 23 °C, O2 co-substrate, free enzyme
purified protein [2] = substrate: CCn1c(=NN=c2sc3cc(S(=O)(=O)O)ccc3n2CC)sc2cc(S(=O)(=O)O)ccc21; test: purified protein; type: biochemical, Antrodiella faginea; settings: air-saturated 0.1 M Na-citrate-phosphate buffer, pH 5.5, 23 °C, O2 co-substrate, free enzyme

Row | Protein | Km (purified protein [1]) | kcat (purified protein [1]) | kcat/Km (purified protein [1]) | Km (purified protein [2]) | kcat (purified protein [2]) | kcat/Km (purified protein [2])
1 | B1 | 71.7 ± 2.9 µM | 33.3 ± 1.4 s⁻¹ | 460000 M⁻¹ s⁻¹ | – | – | –
2 | B2 | – | – | – | 4.9 ± 0.4 µM | 32.7 ± 1.1 s⁻¹ | 6.67e+06 M⁻¹ s⁻¹
